Laboratory results taken from PMC4785404, “The three-dimensional structure of Clostridium absonum 7α-hydroxysteroid dehydrogenase: new insights into the conserved arginines for NADP(H) recognition” (Scientific Reports, 2016).
Where “and” joins values, the source holds several entries; their conditions need not be identical. Identical values can stand only once.

B1: 7α-hydroxysteroid dehydrogenase from Clostridium absonum (enzyme, UniProt G9FRD7 1-262, looked up)
chain: MKRLEGKVAIVTSSTRGIGRASAEALAKEGALVYLAARSEELANEVIADIKKQGGVAKFVYFNAREEETYTSMVEKVAEAEGRIDILVNNYGGTNVNLDKNLTAGDTDEFFRILKDNVQSVYLPAKAAIPHMEKVGGGSIVNISTIGSVVPDISRIAYCVSKSAINSLTQNIALQYARKNIRCNAVLPGLIGTRAALENMTDEFRDSFLGHVPLNRVGRPEDIANAVLYYASDDSGYVTGMIHEVAGGFALGTPQYSEYCPR
notes: 7α-hydroxysteroid dehydrogenase (CA 7α-HSDH), Clostridium absonum; the gene was cloned into pGEX-6p-1; Crystallised with NADP+ and TCDCA; also called CA 7α-HSDH; 7α-HSDH; source: E. coli BL21 (DE3), GST-fused from pGEX-6p-1, purified (monoQ, superdex 75)

Assays:
[1] = system: NC(=O)c1ccc[n+]([C@@H]2O[C@H](COP(=O)(O)OP(=O)(O)OC[C@H]3O[C@@H](n4cnc5c(N)ncnc54)[C@H](OP(=O)(O)O)[C@@H]3O)[C@@H](O)[C@H]2O)c1; experiment: purified protein; conditions: assay conditions by cited earlier methods; co-substrate not given; SD in parentheses; crystal structure of complex with TCDCA also solved; varied: cofactor
[2] = target: the molecule itself; experiment: SEC; purified CA 7α-HSDH in aqueous solution; standard proteins of 669, 440, 158, 75, 44, 29 and 13.7 kDa; the dimer fraction of the first run was collected and run again; the tetramer fractions were checked by MS

Row | Molecule | Km [1] | kcat [1] | kcat/Km [1] | stoichiometry N [2]
1 | CA 7α-HSDH (Clostridium sardiniense) | 0.34 (0.01) mM | 13.8 s⁻¹ | 40100 M⁻¹ s⁻¹ | –
2 | B1 | – | – | – | 2 and 4
